For this experiment, the target named is 11-A-12 recombinant fibronectin fragment, containing the EDA domain.

In the case of “F8 single-chain variable Fragment (scFv) linked to a single unit of murine GITRL (from UniProt Q7TS55 46-170)”, the fold reduction of the EC50 of NF-κB reporter activity of the CTLL-2 reporter cell line in the presence of EDA (coated 11-A-12 fibronectin) against no EDA stood at 5 fold.
